First the molecules themselves.
B1: MATN2 (parent)
chain: VNVPGSFVCQCYSGYALAEDGKRC
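Note: lentivirally expressed fusions sorted by FACS into six bins by GFP to DsRed ratio, PSI derived from sequencing read proportions per bin multiplied by bin number.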

The variants in the data set derive from B1. Put plainly: protein stability index of a GFP-peptide fusion (GPS, HEK-293T) (PSI 1-6); higher = more stable. The following applies: c terminus: a fixed tail appended.
Turning to VNVPGSFVCQIYSGYALAEDGKRC [C11I], the protein stability index stood at 1.72.
Next, VNVPGSFVCQGYSGYALAEDGKRC [C11G]: 2.75; VNVPGSFVCQRYSGYALAEDGKRC [C11R]: 3.32; VNVPGSFVCQWYSGYALAEDGKRC [C11W]: 2.05.
For VNVPGSFVCQKYSGYALAEDGKRC [C11K] the value was 2.87.
Next, VNVPGSFVCQFYSGYALAEDGKRC [C11F]: 2.48; VNVPGSFVCQCYSGYALAEDGWRC [K22W]: 1.9; VNVPGSFVCQCYSGYALAEDGNRC [K22N]: 3.34.
Take VNVPGSFVCQCYSGYALAEDGGRC [K22G]: the protein stability index amounted to 2.43.
Next, VNVPGSFVCQCYSGYALAEDGTRC [K22T]: 2.6; VNVPGSFVCQCYSGYALAEDGQRC [K22Q]: 1.49.
Next, VNVPGSFVCQCYSGYALAEDGARC [K22A]: 2.6; VNVPGSFVCQCYSGYALAEDGCRC [K22C]: 3.96.
For VNVPGSFVCQCYSGYALAEDGLRC [K22L] the value was 1.17; for VNVPGSFVCQCYSGYALAPDGKRC [E19P], 1.54; for VNVPGSFVCQCYSGYALATDGKRC [E19T], 1.75.
As to VNVPGSFVCQCYSGYALAYDGKRC [E19Y], the protein stability index was determined as 1.7.
As for VNVPGSFVCQCYSGYALACDGKRC [E19C], the protein stability index was determined as 3.15.
Next, VNVPGSFVCQCYSGYALAQDGKRC [E19Q]: 1.75; VNVPGSFVCQCYSGYALAKDGKRC [E19K]: 2; VNVPGSFVCQCYSGYALAADGKRC [E19A]: 1.93.
For VNVPGSFVCQCYSGYALASDGKRC [E19S] the value was 1.43; for VNVPGVFVCQCYSGYALAEDGKRC [S6V], 1.84; for VNVPGFFVCQCYSGYALAEDGKRC [S6F], 3.53.
For VNVPGNFVCQCYSGYALAEDGKRC [S6N], the protein stability index amounted to 1.43.
As for VNVPGQFVCQCYSGYALAEDGKRC [S6Q], the protein stability index is 1.81.
Take VNVPGSFVCQCQSGYALAEDGKRC [Y12Q]: the protein stability index was found to be 1.76.
Next, VNVPGSFVCQCLSGYALAEDGKRC [Y12L]: 2.21; VNVPGSFVCQCASGYALAEDGKRC [Y12A]: 2.73.
Next, VNVPGSFVCQCFSGYALAEDGKRC [Y12F]: 2.54.
For VNVPGSFVCQCISGYALAEDGKRC [Y12I] the value was 1.36.
As for VNVPGSFVCQCESGYALAEDGKRC [Y12E], the protein stability index was determined as 3.47.
For VNVPGSFVCQCVSGYALAEDGKRC [Y12V] the value was 2.13; for VNVPGSFVCQCSSGYALAEDGKRC [Y12S], 2.64.
For VNVPGSFVCQCCSGYALAEDGKRC [Y12C] the value was 2.87.
For VNVPGSFMCQCYSGYALAEDGKRC [V8M] the value was 2.79.
Take VNVPGSFCCQCYSGYALAEDGKRC [V8C]: the protein stability index stood at 1.27.
For VNVPGSFFCQCYSGYALAEDGKRC [V8F] the value was 1.79; for VNVPGSFGCQCYSGYALAEDGKRC [V8G], 1.92; for VNVPGSFKCQCYSGYALAEDGKRC [V8K], 2.74.
For VNVPGSFNCQCYSGYALAEDGKRC [V8N] the value was 2.51; for VNVPGSFWCQCYSGYALAEDGKRC [V8W], 3.21.
Consider VNVPGSFSCQCYSGYALAEDGKRC [V8S], for which the protein stability index was 3.19.
Turning to VNVPGSFDCQCYSGYALAEDGKRC [V8D], the protein stability index worked out at 3.89.
Next, VQVPGSFVCQCYSGYALAEDGKRC [N2Q]: 2.28; VVVPGSFVCQCYSGYALAEDGKRC [N2V]: 1.25.
Next, VWVPGSFVCQCYSGYALAEDGKRC [N2W]: 1.79; VIVPGSFVCQCYSGYALAEDGKRC [N2I]: 1.75; VSVPGSFVCQCYSGYALAEDGKRC [N2S]: 1.82.
Regarding VGVPGSFVCQCYSGYALAEDGKRC [N2G], the protein stability index amounted to 1.89.
VTVPGSFVCQCYSGYALAEDGKRC [N2T]: the protein stability index was 2.35.
For VFVPGSFVCQCYSGYALAEDGKRC [N2F] the value was 2.64.
In the case of VNVPGSFVCQCYSGYALAEDWKRC [G21W], the protein stability index came out at 1.3.
As to VNVPGSFVCQCYSGYALAEDAKRC [G21A], the protein stability index stood at 2.
For VNVPGSFVCQCYSGYALAEDSKRC [G21S] the value was 2.36; for VNVPGSFVCQCYSGYALAEDDKRC [G21D], 2.43.
As to VNVPGSFVCQCYSGYALAEDQKRC [G21Q], the protein stability index turned out to be 2.75.
Consider VNVPGSFVCQCYSGYALAEDPKRC [G21P], for which the protein stability index is 2.38.
Next, VNVPRSFVCQCYSGYALAEDGKRC [G5R]: 2.17.
For VNVPVSFVCQCYSGYALAEDGKRC [G5V] the value was 1.17; for VNVPESFVCQCYSGYALAEDGKRC [G5E], 1.79.
For VNVPYSFVCQCYSGYALAEDGKRC [G5Y] the value was 1.2; for VNVPDSFVCQCYSGYALAEDGKRC [G5D], 2.06; for VNVPCSFVCQCYSGYALAEDGKRC [G5C], 2.68.
As to VNVPISFVCQCYSGYALAEDGKRC [G5I], the protein stability index is 1.45.
For VNVPWSFVCQCYSGYALAEDGKRC [G5W] the value was 4.67; for VNVPGSFVCQCYSIYALAEDGKRC [G14I], 3.06; for VNVPGSFVCQCYSWYALAEDGKRC [G14W], 1.93.
For VNVPGSFVCQCYSFYALAEDGKRC [G14F] the value was 2.6.
Next, VNVPGSFVCQCYSTYALAEDGKRC [G14T]: 1.69; VNVPGSFVCQCYSCYALAEDGKRC [G14C]: 2.16.
In the case of VNVPGSFVCQCYSGYALAEDGKNC [R23N], the protein stability index amounted to 2.23.
Next, VNVPGSFVCQCYSGYALAEDGKCC [R23C]: 2.74; VNVPGSFVCQCYSGYALAEDGKHC [R23H]: 1.62; VNVPGSFVCQCYSGYALAEDGKKC [R23K]: 2.99.
On to VNVPGSFVCQCYSGYALAEDGKGC [R23G], for which the protein stability index was determined as 2.56.
For VNVPGSFVCQCYSGYALAEDGKLC [R23L] the value was 2.62; for VNVPGSFVCQCYSGYALAEDGKEC [R23E], 2.78; for VNVPGSFVCQCYSGYALAEDGKTC [R23T], 2.06.
Next, VNVPGSFVCQCYSGYALAEDGKSC [R23S]: 2.35.
For VNVPGSFVCQCYSGYAEAEDGKRC [L17E] the value was 2.58.
In the case of VNVPGSFVCQCYSGYAYAEDGKRC [L17Y], the protein stability index worked out at 2.44.
Consider VNVPGSFVCQCYSGYAGAEDGKRC [L17G], for which the protein stability index came out at 2.04.
For the variant VNVPGSFVCQCYSGYARAEDGKRC [L17R], the protein stability index amounted to 2.54.
Next, VNVPGSFVCQCYSGYAWAEDGKRC [L17W]: 1.92; VNVPGSFVCQCYSGYAHAEDGKRC [L17H]: 2.27; VNVPGSFVCQCYSGYAFAEDGKRC [L17F]: 1.03.
For the variant VNVPGSFVCQCYSGYAQAEDGKRC [L17Q], the protein stability index is 2.26.
For VNVPGSFVCQCYSGYACAEDGKRC [L17C] the value was 3.36; for VNVPGSFVCQCYSGYAMAEDGKRC [L17M], 1.81.
For VNVPGSFVCQCYSGYAVAEDGKRC [L17V] the value was 2.3; for VNVPGSFVCQCYSGYADAEDGKRC [L17D], 2.51.
For VNVPGSFVCQCYSGYAAAEDGKRC [L17A] the value was 2.85; for VNVPGSFVCQCYSGYAIAEDGKRC [L17I], 1.67.

Source of the values: the supplement of paper PMC10567573.
